Assay results taken from patent US20180282409A1 (Hoffmann-La Roche, published 2018).
Residue numbers refer to the chain shown, from its start. In names and notes the source's numbering stands. One block for each binder: values may come before it.

Assays:
[1] = target: T1, cynomolgus monkey CD19 extracellular domain (ECD) fused to the human PSCA GPI anchor sequence, on transfected … (cynomolgus monkey; human); assay: flow cytometry on HEK293 cells presenting cynomolgus CD19 ECD by GPI anchor
T1 construct: Presented on the surface of transiently transfected HEK293 cells; its processing in the cell is not described; also called cynomolgus CD19-ECD; cyCD19 ECD
T1 chain: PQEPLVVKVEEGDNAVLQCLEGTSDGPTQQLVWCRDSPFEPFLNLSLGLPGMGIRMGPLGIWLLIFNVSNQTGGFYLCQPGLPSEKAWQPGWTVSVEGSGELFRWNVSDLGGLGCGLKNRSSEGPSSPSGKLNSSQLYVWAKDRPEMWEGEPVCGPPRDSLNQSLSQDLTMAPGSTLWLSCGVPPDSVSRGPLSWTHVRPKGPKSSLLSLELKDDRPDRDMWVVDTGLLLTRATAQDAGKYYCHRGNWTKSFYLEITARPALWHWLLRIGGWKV
Protocol: HEK293 cells were transfected with 1 μg of plasmid DNA per 1.5×10⁶ cells using LipofectAmine 2000 and incubated thereafter for 48 hours at 37° C. […] GWKV; SEQ ID NO: 31) extracellular domain (ECD) fused to the human PSCA GPI anchor sequence ([…] WGPGQL; SEQ ID NO: 32) for extracellular presentation. […] The starting concentration of the antibodies was set to 60 μg/mL (2× final concentration) and then diluted in a 1:3 (v/v) titration series. The primary antibody was incubated on the cells for one hour at room temperature, followed by two wash steps. For secondary detection, anti-huIgG (H+L) antibody conjugated to Alexa488 in a concentration of 30 μg/mL was used.

[2] = target: T2, extracellular domain of recombinant human CD19 receptor (human, UniProt P15391 20-291); assay: SPR (BIAcore), half-life of the complex
T2 construct: extracellular domain; also called recombinant human CD19 ECD
T2 sequence (looked up): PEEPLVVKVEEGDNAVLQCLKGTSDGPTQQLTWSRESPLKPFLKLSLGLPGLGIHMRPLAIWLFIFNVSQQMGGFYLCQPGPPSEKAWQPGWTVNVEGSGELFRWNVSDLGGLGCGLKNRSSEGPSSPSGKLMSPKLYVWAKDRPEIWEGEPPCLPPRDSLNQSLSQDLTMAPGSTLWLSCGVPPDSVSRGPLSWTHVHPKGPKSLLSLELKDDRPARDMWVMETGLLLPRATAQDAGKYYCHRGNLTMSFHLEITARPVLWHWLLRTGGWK

- EC50 [1]: 0.313 µg/mL
B1: wild-type humanized anti-human CD19 antibody (var.0: wt) (antibody, V domains shown)
VH: EVQLQQSGPELVKPGASVKMACKASGYTFTDYIMHWVKQKTGQGLEWIGYINPYNDGSKYTEKFNGKATLTSDKSSITAYMELSSLTSEDSAVYYCARGTYYYGSALFDYWGQGTTLTVSS
VL: DAVMTQTPLSLPVSLGDQASISCRSSQSLENSNGNTYLNWYLQKPGQSPQLLIYRVSKRFSGVLDRFSGSGSGTDFTLKISRVEAEDLGVYFCLQLTHVPYTFGGGTKLEIK
notes: it was detected with anti-human IgG and captured with anti-human Fab; also called variant 0: wt; humanized wild-type antibody

- t1/2 [2]: 43.6 min
B2: humanized anti-human CD19 antibody var.5:S27eP (antibody, V domains shown)
VH: QVQLVQSGAEVKKPGASVKVSCKASGYTFTDYIMHWVRQAPGQGLEWMGYINPYNDGSKYTEKFQGRVTMTSDTSISTAYMELSRLRSDDTAVYYCARGTYYYGSALFDYWGQGTTVTVSS
VL: DIVMTQTPLSLSVTPGQPASISCKSSQSLENPNGNTYLNWYLQKPGQSPQLLIYRVSKRFSGVPDRFSGSGSGTDFTLKISRVEAEDVGVYYCLQLTHVPYTFGQGTKLEIK
notes: also called variant 5 (S27eP); variant 5

- t1/2 [2]: 4 min
B3: humanized anti-human CD19 antibody var.9:S27eP/N28S (antibody, V domains shown)
VH: B2 VH
VL: B2 VL with N33S
notes: also called variant 9 (S27eP/N28S); variant 9
